Results on 37 molecules are retold here after patent US10647775B2.

To fix the notation:
B1: DBDpp of SEQ ID NO: 26 (designed binder)
chain: MGSWNYFKDHLAWIKNSLEALGGSEAELAHFETAIASFERQLQEYKGKGNPEVEALRKEAAAIRDELQAYRHN
B2: DBDpp of SEQ ID NO: 29 (designed binder)
chain: B1 chain with N5F, D9Q, N16S, S17Y, T33R, S37A, R40Q, Q41H, E44M
B3: DBDpp of SEQ ID NO: 34 (designed binder)
chain: B1 chain with N5W, Y6L, W13E, N16T, S17A, T33M, S37A, R40K, E44Y
B4: DBDpp of SEQ ID NO: 27 (designed binder)
chain: B1 chain with N5L, D9E, W13H, N16A, S17W, T33L, S37D, R40Y, Q41H
B5: DBDpp of SEQ ID NO: 30 (designed binder)
chain: B1 chain with N5H, W13E, N16G, S17L, T33M, S37D, R40H, Q41N, E44Y
B6: DBDpp of SEQ ID NO: 31 (designed binder)
chain: B1 chain with N5H, D9G, W13E, S17H, T33R, S37A, Q41S, E44W
B7: DBDpp of SEQ ID NO: 28 (designed binder)
chain: MGSWVYFKEHLAWIKTELEALGGSEAELAHFEHSIADFEMSLQFYKGKGNPEVEALRKEAAAIRDELQAYRHN
B8: DBDpp of SEQ ID NO: 32 (designed binder)
chain: B7 chain with V5I, W13Y, T16K, H33S, S34A, D37V, M40S, S41T, F44Y
B9: DBDpp of SEQ ID NO: 33 (designed binder)
chain: B7 chain with V5T, W13E, T16Y, E17M, H33V, S34A, M40K, S41M, F44Y
B10: DBDpp of SEQ ID NO: 15 (designed binder)
chain: MGSWYEFSMRLWAIDQRLYALGGSEAELAAFEKEIAAFESELQAYKGKGNPEVEALRAKAAYIRWKLQAYRHN
B11: DBDpp of SEQ ID NO: 14 (designed binder)
chain: B10 chain with S8R, M9H, A55G, A58E, K59A, Y62F, W65A
B12: DBDpp of SEQ ID NO: 17 (designed binder)
chain: B10 chain with S8G, M9H, A55Y, A58E, K59T, Y62H, W65T, K66R
B13: DBDpp of SEQ ID NO: 12 (designed binder)
chain: B10 chain with Y5V, S8G, M9H, A55K, A58Q, K59R, Y62F, W65F, K66R
B14: DBDpp of SEQ ID NO: 13 (designed binder)
chain: B10 chain with Y5V, S8A, M9N, Y19F, A55H, A58D, K59Q, Y62F, W65H
B15: DBDpp of SEQ ID NO: 18 (designed binder)
chain: B10 chain with S8H, M9Y, W12H, A55E, A58I, Y62F, W65D, K66R
B16: DBDpp of SEQ ID NO: 16 (designed binder)
chain: MGSWFEFNHRLWAINERLYALGGSEAELAAFEKEIAAFESELQAYKGKGNPEVERLRSMAAFIRYKLQAYRHN
B17: DBDpp of SEQ ID NO: 37 (designed binder)
chain: MGSWLWFKIFLAEIKYFLEALGGSEAELAAFDFEIHAFHVELFAYKGKGNPEVEVLREVAAEIRWDLQAYRHN
B18: DBDpp of SEQ ID NO: 36 (designed binder)
chain: MGSWYEFYNRLYAIEIRLYALGGSEAELAAFEKEIAAFESELQAYKGKGNPEVERLRVRAAKIRVILQAYRHN
B19: DBDpp of SEQ ID NO: 35 (designed binder)
chain: MGSWSEFYNRLDAIESRLLALGGSEAELALFEIQIARFEKVLQAYKGKGNPEVEALRGEARAIFAELYAYRHN
B20: DBDpp of SEQ ID NO: 24 (designed binder)
chain: MGSWTEFYSRLEAIWVRLQALGGSEAELAMFEDRIAHFEWFLQQYKGKGNPEVEALHEEAIAIRKELAAYRHN
B21: DBDpp of SEQ ID NO: 20 (designed binder)
chain: MGSWYEFDLRLHAIYDRLVALGGSEAELAAFEKEIAAFESELQAYKGKGNPEVEILRDNAAYIRQMLQAYRHN
B22: DBDpp of SEQ ID NO: 22 (designed binder)
chain: B21 chain with Y5A, L9H, Y15R, D16E, V19H, D58G, Q65A, M66L
B23: DBDpp of SEQ ID NO: 23 (designed binder)
chain: MGSWTEFVGRLAAIEFRLWALGGSEAELAWFEAHIAFFEDYLQWYKGKGNPEVEALREEAGAIMEELKAYRHN
B24: DBDpp of SEQ ID NO: 21 (designed binder)
chain: MGSWTEFTYRLSAIEWRLWALGGSEAELAWFEQKIAFFEDFLQYYKGKGNPEVEALKHEAGAILNELMAYRHN
B25: DBDpp of SEQ ID NO: 45 (designed binder)
chain: MGSWVVFKVDLATIKYILEALGGSEAELAEFEGEIAGFEYSLQFYKGKGNPEVEALRKEAAAIRDELQAYRHN
B26: DBDpp of SEQ ID NO: 48 (designed binder)
chain: MGSWYAFKDYLADIKGWLEALGGSEAELAFFEIFIARFELELQAYKGKGNPEVEALRKEAAAIRDELQAYRHN
B27: DBDpp of SEQ ID NO: 46 (designed binder)
chain: MGSWTIFKEWLAFIKTDLEALGGSEAELAFFEGWIASFEMELQKYKGKGNPEVEALRKEAAAIRDELQAYRHN
B28: DBDpp of SEQ ID NO: 47 (designed binder)
chain: MGSWVMFKWLLADIKSHLEALGGSEAELAFFEGFIAAFETHLQVYKGKGNPEVEALRKEAAAIRDELQAYRHN
B29: DBDpp of SEQ ID NO: 25 (designed binder)
chain: MGSWHEFHDRLQAIHERLYALGGSEAELAAFEKEIAAFESELQAYKGKGNPEVESLRIAAAHIRQVLQAYRHN
B30: DBDpp of SEQ ID NO: 44 (designed binder)
chain: MGSWFEFENRLHAIVHRLGALGGSEAELAAFEKEIAAFESELQAYKGKGNPEVETLRADAAFIRHYLQAYRHN
B31: DBDpp of SEQ ID NO: 38 (designed binder)
chain: MGSWTEFQSRLDAIHSRLRALGGSEAELAAFEKEIAAFESELQAYKGKGNPEVELLRDDAAFIRHFLQAYRHN
B32: DBDpp of SEQ ID NO: 39 (designed binder)
chain: B31 chain with T5Q, Q8D, S9D, D12N, H15K, S16A, R19Q, L55D, H65R
B33: DBDpp of SEQ ID NO: 43 (designed binder)
chain: B31 chain with T5Y, Q8N, S9H, H15S, S16K, R19N, L55E, D58G
B34: DBDpp of SEQ ID NO: 40 (designed binder)
chain: B31 chain with T5Y, S9N, D12H, S16E, R19N
B35: DBDpp of SEQ ID NO: 42 (designed binder)
chain: B31 chain with T5Y, Q8E, S16E, R19H, L55N, D58G
B36: DBDpp of SEQ ID NO: 41 (designed binder)
chain: B16 chain with N8Q, H9D, W12T, Y19S, R55T, M59D, Y65R, K66F
B37: bb10 (designed binder)
chain: MGSWAEFKQRLAAIKTRLEALGGSEAELAAFLGEIWAFEMELAAYKGKGNPEVEALGREAAAIRMELQAYRHN

Where a chain is given by its changes, count along the chain named.

Sequence of PD1-Fc (Homo sapiens (Human)) (Q15116 25-167 limits assumed): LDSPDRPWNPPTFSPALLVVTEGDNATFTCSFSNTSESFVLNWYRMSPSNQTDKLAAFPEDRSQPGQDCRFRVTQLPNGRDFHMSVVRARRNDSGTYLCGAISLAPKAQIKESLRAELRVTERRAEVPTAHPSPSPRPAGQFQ

In the first experiment the target is DR5-Fc (Homo sapiens (Human)) (UniProt O14763). Briefly: phage ELISA, target-Fc against non-specific control (IgG1-Fc).
Sequence of DR5-Fc (Homo sapiens (Human)) (O14763 56-182 limits assumed): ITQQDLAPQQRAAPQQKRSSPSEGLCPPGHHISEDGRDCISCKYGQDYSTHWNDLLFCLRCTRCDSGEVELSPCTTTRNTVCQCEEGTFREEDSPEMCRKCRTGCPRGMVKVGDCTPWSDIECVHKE
As for B1, the ELISA ratio (target to background) came out at 13.
With B2, the ELISA ratio (target to background) is 11.8.
Same read-out and setting: under B3 stands 9.75; under B4, 12.3.
Still for that read-out and setting: under B5 stands 11.4; under B6, 10.8; under B7, 12.1.
Same read-out and setting: under B8 stands 10.7; under B9, 10.3.

For another experiment, the target named is recombinant, biotinylated, Human 4-1BB/TNFRSF9/CD137-Fc (human) (UniProt Q07011). Described as above.
Sequence of recombinant, biotinylated, Human 4-1BB/TNFRSF9/CD137-Fc (human) (Q07011 24-186 limits assumed): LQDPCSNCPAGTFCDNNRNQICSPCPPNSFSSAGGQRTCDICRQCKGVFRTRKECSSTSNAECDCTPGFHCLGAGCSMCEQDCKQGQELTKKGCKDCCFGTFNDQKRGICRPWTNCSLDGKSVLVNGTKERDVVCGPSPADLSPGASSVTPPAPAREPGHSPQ
For the molecule B10, the ELISA ratio (target to background) was found to be 12.
On the same count and under the same terms, for B11 the value was 13; for B12, 7.71; for B13, 20.6.
Still for that read-out and setting: under B14 stands 16.1; under B15, 7.26.
Same read-out and setting: under B16 stands 11.9.

Another experiment has as its target KIR-Fc. The experiment is described as above.
Regarding B17, the ELISA ratio (target to background) was found to be 4.17.
Still for that read-out and setting: for B18 the value was 4.24; for B19, 8.4.

The target in another experiment is CD47-Fc (Homo sapiens (Human)) (UniProt Q08722). Described as above.
Sequence of CD47-Fc (Homo sapiens (Human)) (Q08722 19-139 limits assumed): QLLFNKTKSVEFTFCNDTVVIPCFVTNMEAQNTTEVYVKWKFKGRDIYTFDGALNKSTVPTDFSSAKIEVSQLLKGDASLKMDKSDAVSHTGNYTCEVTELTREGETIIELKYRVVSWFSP
With B20, the ELISA ratio (target to background) turned out to be 4.58.
Same read-out and setting: under B21 stands 14.1; under B22, 11.7; under B23, 8.23.
Same read-out and setting: under B24 stands 12.5.

The target of another experiment is TIM3-Fc (Homo sapiens (Human)) (UniProt Q8TDQ0). The experiment is described as above.
B25: the ELISA ratio (target to background) came to 5.79.

The next experiment has as its target PD1-Fc (Homo sapiens (Human)) (UniProt Q15116). Described as above.
B26: the ELISA ratio (target to background) worked out at 3.29.
Still for that read-out and setting: under B27 stands 17.1; under B28, 8.13.

The target in a further experiment is CTLA4-Fc (Homo sapiens (Human)) (UniProt P16410). The description is as above.
Sequence of CTLA4-Fc (Homo sapiens (Human)) (P16410 37-162 limits assumed): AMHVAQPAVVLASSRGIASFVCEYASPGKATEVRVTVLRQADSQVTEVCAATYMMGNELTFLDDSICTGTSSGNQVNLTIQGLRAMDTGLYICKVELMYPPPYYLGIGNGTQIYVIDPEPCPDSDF
Turning to B29, the ELISA ratio (target to background) is 2.95.

The target in another experiment is PD-L1-Fc (human) (UniProt Q9NZQ7). The experiment is described as above.
Sequence of PD-L1-Fc (human) (Q9NZQ7 19-239 limits assumed): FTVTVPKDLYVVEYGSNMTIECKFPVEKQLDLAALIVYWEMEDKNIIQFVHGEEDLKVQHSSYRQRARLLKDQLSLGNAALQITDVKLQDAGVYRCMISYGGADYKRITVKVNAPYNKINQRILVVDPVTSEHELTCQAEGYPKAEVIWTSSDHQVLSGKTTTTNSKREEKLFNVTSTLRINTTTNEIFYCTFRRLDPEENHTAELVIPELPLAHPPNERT
Turning to B30, the ELISA ratio (target to background) stood at 2.76.
The same measure, in the same setting: for B31 the value was 8.68; for B32, 7.41.
Same read-out and setting: under B33 stands 2.98; under B34, 6.34.
As for B35, the ELISA ratio (target to background) amounted to 4.88.
Still for that read-out and setting: under B36 stands 6.01.

A further experiment has as its target IgG Fc (control). In words: phage ELISA of rescued clones on control IgG Fc.
Consider B37, for which the ELISA absorbance (average) turned out to be 0.067.

The target in another experiment is recombinant, biotinylated, Human 4-1BB/TNFRSF9/CD137-Fc (human) (UniProt Q07011). Briefly: phage ELISA of rescued clones.
Consider B37, for which the ELISA absorbance (average) stood at 0.353.

Another experiment has the same target. Briefly: phage ELISA, CD137-Fc against control IgG Fc.
In the case of B37, the ELISA ratio (target to background) came to 5.27.
